From US20240122983A1 (SHATTUCK LABS, published 2024)
Like-named read-outs stand apart in the source and are kept apart here.

T1: recombinant mouse mOX40 protein (mouse, UniProt P47741 20-211, limits assumed)
T1 sequence (looked up): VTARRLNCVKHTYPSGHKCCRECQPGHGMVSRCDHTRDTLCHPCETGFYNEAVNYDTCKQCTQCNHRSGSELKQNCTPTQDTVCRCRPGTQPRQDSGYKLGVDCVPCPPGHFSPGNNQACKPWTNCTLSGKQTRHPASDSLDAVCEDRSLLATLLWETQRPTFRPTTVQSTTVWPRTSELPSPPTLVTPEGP

B1: Standard mFlt3L (ligand)
chain: GTPDCYFSHSPISSNFKVKFRELTDHLLKDYPVTVAVNLQDEKHCKALWSLFLAQRWIEQLKTVAGSKMQTLLEDVNTEIHFVTSCTFQPLPECLRFVQTNISHLLKDTCTQLLALKPCIGKACQNFSRCLEVQCQPDSSTLLPPRSPIALEATELPEPRPRQ
notes: also called recombinant mFLT3L protein
B2: Standard(mCD40L) (ligand, mouse, UniProt P27548 112-260, looked up)
ligand chain: MQRGDEDPQIAAHVVSEANSNAASVLQWAKKGYYTMKSNLVMLENGKQLTVKREGLYYVYTQVTFCSNREPSSQRPFIVGLWLKPSSGSERILLKAANTHSSSQLCEQQSVHLGGVFELQAGASVFVNVTEASQVIHRVGFSSFGLLKL
notes: recombinant soluble protein; also called recombinant mCD40L protein
B3: mFLT3L-Fc-OX40L chimeric protein (Fc fusion, murine;mouse (printed as mFc), UniProt P49772 27-189, looked up)
chain: GTPDCYFSHSPISSNFKVKFRELTDHLLKDYPVTVAVNLQDEKHCKALWSLFLAQRWIEQLKTVAGSKMQTLLEDVNTEIHFVTSCTFQPLPECLRFVQTNISHLLKDTCTQLLALKPCIGKACQNFSRCLEVQCQPDSSTLLPPRSPIALEATELPEPRPRQVPRDCGCKPCICTVPEVSSVFIFPPKPKDVLTITLTPKVTCVVVDISKDDPEVQFSWFVDDVEVHTAQTQPREEQFNSTFRSVSELPIMHQDWLNGKEFKCRVNSAAFPAPIEKTISKTKGRPKAPQVYTIPPPKEQMAKDKVSLTCMITDFFPEDITVEWQWNGQPAENYKNTQPIMNTNGSYFVYSKLNVQKSNWEAGNTFTCSVLHEGLHNHHTEKSLSHSPGKSSSPAKDPPIQRLRGAVTRCEDGQLFISSYKNEYQTMEVQNNSVVIKCDGLYIIYLKGSFFQEVKIDLHFREDHNPISIPMLNDGRRIVFTVVASLAFKDKVYLTVNAPDTLCEHLQINDGELIVVQLTPGYCAPEGSYHSTVNQVPL
notes: extracellular domain;domain: hinge-CH2-CH3 Fc domain; Expressed in 293 cells, purified on protein A; multimer when not reduced; also called murine FLT3L-Fc-OX40L
B4: mFLT3L-Fc-GITRL chimeric protein (Fc fusion, murine;mouse (printed as mFc), UniProt P49772 27-189, looked up)
chain: GTPDCYFSHSPISSNFKVKFRELTDHLLKDYPVTVAVNLQDEKHCKALWSLFLAQRWIEQLKTVAGSKMQTLLEDVNTEIHFVTSCTFQPLPECLRFVQTNISHLLKDTCTQLLALKPCIGKACQNFSRCLEVQCQPDSSTLLPPRSPIALEATELPEPRPRQVPRDCGCKPCICTVPEVSSVFIFPPKPKDVLTITLTPKVTCVVVDISKDDPEVQFSWFVDDVEVHTAQTQPREEQFNSTFRSVSELPIMHQDWLNGKEFKCRVNSAAFPAPIEKTISKTKGRPKAPQVYTIPPPKEQMAKDKVSLTCMITDFFPEDITVEWQWNGQPAENYKNTQPIMNTNGSYFVYSKLNVQKSNWEAGNTFTCSVLHEGLHNHHTEKSLSHSPGKTSLKPTAIESCMVKFELSSSKWHMTSPKPHCVNTTSDGKLKILQSGTYLIYGQVIPVDKKYIKDNAPFVVQIYKKNDVLQTLMNDFQILPIGGVYELHAGDNIYLKFNSKDHIQKTNTYWGIILMPDLPFIS
notes: extracellular domain;domain: hinge-CH2-CH3 Fc domain; Expressed in 293 cells, purified on protein A; multimer when not reduced; also called murine FLT3L-Fc-GITRL; mFLT3-Fc-GITRL
B5: mFLT3L-Fc-CD40L chimeric protein (Fc fusion, murine;mouse (printed as mFc), UniProt P49772 27-189, looked up)
chain: GTPDCYFSHSPISSNFKVKFRELTDHLLKDYPVTVAVNLQDEKHCKALWSLFLAQRWIEQLKTVAGSKMQTLLEDVNTEIHFVTSCTFQPLPECLRFVQTNISHLLKDTCTQLLALKPCIGKACQNFSRCLEVQCQPDSSTLLPPRSPIALEATELPEPRPRQVPRDCGCKPCICTVPEVSSVFIFPPKPKDVLTITLTPKVTCVVVDISKDDPEVQFSWFVDDVEVHTAQTQPREEQFNSTFRSVSELPIMHQDWLNGKEFKCRVNSAAFPAPIEKTISKTKGRPKAPQVYTIPPPKEQMAKDKVSLTCMITDFFPEDITVEWQWNGQPAENYKNTQPIMNTNGSYFVYSKLNVQKSNWEAGNTFTCSVLHEGLHNHHTEKSLSHSPGKHRRLDKVEEEVNLHEDFVFIKKLKRCNKGEGSLSLLNCEEMRRQFEDLVKDITLNKEEKKENSFEMQRGDEDPQIAAHVVSEANSNAASVLQWAKKGYYTMKSNLVMLENGKQLTVKREGLYYVYTQVTFCSNREPSSQRPFIVGLWLKPSSGSERILLKAANTHSSSQLCEQQSVHLGGVFELQAGASVFVNVTEASQVIHRVGFSSFGLLKL
notes: extracellular domain;domain: hinge-CH2-CH3 Fc domain; Expressed in 293 cells, purified on protein A; multimer when not reduced; also called murine FLT3L-Fc-CD40L; mFLT3-Fc-CD40L
B6: recombinant mouse mFLT3 protein (receptor, UniProt Q00342 28-544, looked up)
chain: NQDLPVIKCVLISHENNGSSAGKPSSYRMVRGSPEDLQCTPRRQSEGTVYEAATVEVAESGSITLQVQLATPGDLSCLWVFKHSSLGCQPHFDLQNRGIVSMAILNVTETQAGEYLLHIQSEAANYTVLFTVNVRDTQLYVLRRPYFRKMENQDALLCISEGVPEPTVEWVLCSSHRESCKEEGPAVVRKEEKVLHELFGTDIRCCARNALGRESTKLFTIDLNQAPQSTLPQLFLKVGEPLWIRCKAIHVNHGFGLTWELEDKALEEGSYFEMSTYSTNRTMIRILLAFVSSVGRNDTGYYTCSSSKHPSQSALVTILEKGFINATSSQEEYEIDPYEKFCFSVRFKAYPRIRCTWIFSQASFPCEQRGLEDGYSISKFCDHKNKPGEYIFYAENDDAQFTKMFTLNIRKKPQVLANASASQASCSSDGYPLPSWTWKKCSDKSPNCTEEIPEGVWNKKANRKVFGQWVSSSTLNMSEAGKGLLVKCCAYNSMGTSCETIFLNSPGPFPFIQDNIS
B7: recombinant mouse mCD40 protein (receptor, UniProt P27512 20-193, looked up)
chain: LGQCVTCSDKQYLHDGQCCDLCQPGSRLTSHCTALEKTQCHPCDSGEFSAQWNREIRCHQHRHCEPNQGLRVKKEGTAESDTVCTCKEGQHCTSKDCEACAQHTPCIPGFGVMEMATETTDTVCHPCPVGFFSNQSSLFEKCYPWTSCEDKNLEVLQKGTSQTNVICGLKSRMR

Columns and labels:
[1] = biological target: B6; test: ELISA: plate-bound mFlt3 (10ug/ml), detection goat anti-mFlt3L (1:1000) and anti-goat IgG (10,000)
Excerpt: (§1) Recombinant mFLT3L protein was used to generate a standard curve. […] A mouse whole IgG was used to generate a standard curve. […] Recombinant mCD40L protein was used to generate a standard curve.

[2] = biological target: B7; test: ELISA: plate-bound mCD40 (5ug/ml), detection anti-mCD40L (1:1000) and anti-goat IgG (1:10,000)
Excerpt: as §1

anti-mIgG [3] = biological target: T2, anti-mIgG; test: ELISA: plate-bound anti-mIgG (10ug/ml), detection anti-mIgG-HRP (1:1000)
T2 construct: capture antibody of the mFc ELISA; also called Capture Ab: anti-mIgG(10ug/ml)
Excerpt: (§2) Recombinant mFLT3L protein was used to generate a standard curve. […] A mouse whole IgG was used to generate a standard curve. […] Recombinant mOX40L protein was used to generate a standard curve.

anti-mIgG [4] = biological target: T2, anti-mIgG; test: as above; remark: listed apart in the source
Excerpt: Recombinant mFLT3L protein was used to generate a standard curve. […] A mouse whole IgG was used to generate a standard curve. […] Recombinant m4-1BBL protein was used to generate a standard curve.
as §2

[5] = biological target: T1, recombinant mouse mOX40 protein; test: Dual ELISA: capture anti-FLT3L (R&D AF427), detection with mOX40-His (Acro), tertiary anti-His/HRP (Abcam)
Procedure: (§3) Capture was performed with an anti-FLT3L antibody, followed by detection of the co-stimulatory domain with a his-tagged recombinant protein, and visualized using an anti-his/HRP antibody.

anti-mIgG [6] = biological target: T2, anti-mIgG; test: ELISA: plate-bound anti-mIgG (10ug/ml), detection anti-mIgG-HRP (1:1000); remark: listed apart in the source
Excerpt: Recombinant mFLT3L protein was used to generate a standard curve. […] A mouse whole IgG was used to generate a standard curve. […] Recombinant mGITRL protein was used to generate a standard curve.

[7] = biological target: B7; test: Dual ELISA: capture anti-FLT3L (R&D AF427), detection with mCD40-His (Acro), tertiary anti-His/HRP (Abcam)
Procedure: as §3

[8] = biological target: B5; test: Octet biolayer interferometry, loading mFLT3-his, analyte Conc. 142.9 nM, Full R2 0.9654
Excerpt: (§4) Octet was used to determine on-/off-rates and binding affinities to the target receptors.

[9] = biological target: B5; test: Octet biolayer interferometry, loading mCD40-his, analyte Conc. 142.9 nM, Full R2 0.995
Excerpt: as §4

Binder: B1
- binding result [1]: binds

Binder: B2
- EC50 (read off the curve) [2]: ~10 nM

Binder: B3
- EC50 (read off the curve) (anti-mIgG [3]): ~20 nM
- EC50 (read off the curve) (anti-mIgG [4]): ~20 nM
- EC50 (read off the curve) [5]: ~1 nM

Binder: B4
- EC50 (read off the curve) (anti-mIgG [6]): ~6 nM
- EC50 (read off the curve) (anti-mIgG [4]): ~6 nM

Binder: B5
- EC50 (read off the curve) [7]: ~1 nM

Binder: B6
- Kd [8]: 15.2 nM
- koff [8]: 0.00312 s⁻¹
- kon [8]: 205000 M⁻¹ s⁻¹

Binder: B7
- Kd [9]: 14.2 nM
- koff [9]: 0.000858 s⁻¹
- kon [9]: 61800 M⁻¹ s⁻¹
